According to US20250326826A1 (CENTRO DE INGENIER A GEN TICA Y BIOTECNOLOG A, published 2025):
Each block holds one binder with its values, some of them ahead of it.

Tests used:
[1] = biological target: T1, GST-hVEGF121 (human, UniProt P15692-9 27-147); test: ELISA, coated antigen
T1 construct: plate coating of the VEGF ELISAs; also called human VEGF; not shown: glutathione S-transferase (GST) fusion partner
T1 sequence (looked up): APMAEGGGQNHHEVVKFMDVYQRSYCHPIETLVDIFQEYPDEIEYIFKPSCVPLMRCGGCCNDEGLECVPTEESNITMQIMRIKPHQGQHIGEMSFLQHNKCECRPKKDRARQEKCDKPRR
Method: (§1) After one hour of incubation at 25° C. the plates were washed thoroughly. The binding of the fragment to the antigen in the solid phase was detected by the peroxidase activity using 100 μL/well of TMB. The reaction was stopped with 50 μL/well of stop solution, and absorbance values at 450 nm were determined in a microtiter plate reader.
(§2) The main characteristic of an antibody and its derived fragments is their recognition of the antigen, which determines their specificity and affinity. Specific binding to VEGF was evaluated as described in the section “ELISA for VHHs recognition of their target antigen” (Example 1). […] Nb-V1 also recognized a mutated variant of VEGF121 in the ELISA system where, in the so-called 80's loop, amino acids R82, K84 and H86 are replaced by E82, E84 and E86. It shares this property with CIGB166a, but differentiates it from Bevacizumab.
(§3) Specific binding to bFGF was evaluated as described in the bFGF recognition ELISAs of the Example 1.

[2] = biological target: T2, Recombinant human bFGF (human, UniProt P09038 143-288, limits assumed); test: ELISA, coated human bFGF
T2 construct: Bought (Sigma); also called hFGF-2; human basic fibroblast growth factor
Method: (§4) The 96-well plates were coated with 100 μL/well of a solution of GST-hVEGF121, GST-mVEGF120, or GST at a concentration of 20 μg/mL, or with a solution of VEGFKDR- at a concentration of 10 μg/mL, or hFGF-2 or mFGF-2 at a concentration of 5 μg/mL in 1×PBS for 16 hours at 4° C. After the plates were blocked with PBS-5% skim milk for one hour, 1:2 serial dilutions of the purified VHHs were added, starting at 2 μg/mL in PBS-0.5% skim milk. The plates were incubated for 1 hour at 37° C. and after several washes, the monoclonal antibody 9E10, specific for c-myc, was added. After one hour of incubation at 25° C. the plates were washed thoroughly. The binding of the fragment to the antigen in the solid phase was detected by the peroxidase activity using 100 μL/well of TMB. The reaction was stopped with 50 μL/well of stop solution, and absorbance values at 450 nm were determined in a microtiter plate reader.
(§5) Specific binding to bFGF was evaluated as described in the bFGF recognition ELISAs of the Example 1. […] As in the case of Nb-V1, no recognition of GST or VEGF proteins was observed, thus reinforcing the evidence of the specificity of the binding of the Nb-F3 fragment to its antigen.

[3] = biological target: T3, Mouse bFGF (mouse, UniProt P15655 10-154, limits assumed); test: ELISA, coated mouse bFGF
T3 construct: Bought (SinoBiological); also called mFGF-2
Method: as §4, §5

[4] = biological target: VEGF (soluble stimulus added to cell cultures); test: cell-based or functional assay
[5] = biological target: bFGF (soluble stimulus added to cell cultures); test: cell-based or functional assay
[6] = biological target: T2, Recombinant human bFGF; test: ELISA, coated human bFGF; remark: listed apart in the source
Method: as §4
SEQ ID NO: 18 and SEQ ID NO: 19, and the bivalent Nb-VV6 and Nb-FF2, with sequences identified as SEQ ID NO: 20 and SEQ ID NO: 21, were expressed and purified as described in the Example 1. In all cases, the purity and identity of the proteins were verified by SDS-PAGE 12% and anti-polyhistidine Western Blot. […] The experimental mass of the polypeptides and the arrangement of the disulfide bridges were checked by ESI/MS-MS. The experimental and theoretical mass, for each polypeptide coincided, with errors less than 0.0015% in all cases, and the formation of intramolecular bridges between C22-C101 and C168-C247 was verified. […] The biological activity of the polypeptides was evaluated by ELISA for recognition of the VEGF and bFGF antigens, and by their ability to displace VEGF and bFGF binding to their respective VEGFR2 and FGFR1 receptors. […] Similarly, it was shown that the ability to displace the binding of antigens by their receptors was not affected.

[7] = biological target: T2, Recombinant human bFGF; test: competition ELISA, coated bFGF, competitor Fc-FGFR1
Method: (§6) The ability of VHHs to hinder receptors for binding to their ligand was assessed by ELISA, for which 96-well plates (NUNC, USA) were coated with GST-hVEGF or bFGF and blocked as described in the previous section. Serial 1:2 dilutions of the purified VHHs, from […] to […], were added and the plates and incubated for 1 h at 37° C. In this step, some wells were left where only PBS-milk was added. […] After 45 min incubation at 37° C., plates were washed with PBS-0.05% Tween. To detect receptor binding, HRP-conjugated anti-human IgG antibody was added, diluted 1:5000 in PBS-0.5% milk. After incubation for 1 h at 37° C., the plates were washed with PBS-Tween, and TMB was added. The reaction was stopped after 10 min. Wells incubated with the receptors without the addition of the antibody fragments were taken as reference for maximum binding in the absence of competitor. In this assay, in the case of inhibition of the VEGF/VEGFR axis, the CIGB166a antibody fragment was used as a positive control, and an anti-FGF polyclonal antibody was used for the FGF/FGFR axis. The percentage of inhibition of receptor binding to its ligand was calculated as follows: […]

[8] = biological target: T2, Recombinant human bFGF; test: ELISA, coated antigen
Method: as §1, §2, §3

[9] = biological target: T1, GST-hVEGF121; test: ELISA, coated GST-hVEGF121
Method: as §4
(§7) The main characteristic of an antibody and its derived fragments is their recognition of the antigen, which determines their specificity and affinity. Specific binding to VEGF was evaluated as described in the section “ELISA for VHHs recognition of their target antigen” (Example 1). […] Nb-V1 also recognized a mutated variant of VEGF121 in the ELISA system where, in the so-called 80's loop, amino acids R82, K84 and H86 are replaced by E82, E84 and E86. […]

[10] = biological target: T4, GST-mVEGF120 (mouse, UniProt Q00731-3 27-146); test: ELISA, coated GST-mVEGF120
T4 construct: Produced in E. coli; also called mouse VEGF; mouse growth factor; not shown: glutathione S-transferase (GST) fusion partner
T4 sequence (looked up): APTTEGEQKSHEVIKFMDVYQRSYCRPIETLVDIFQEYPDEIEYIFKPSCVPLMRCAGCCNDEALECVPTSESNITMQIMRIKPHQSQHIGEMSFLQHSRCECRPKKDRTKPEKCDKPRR
Method: as §4, §7

[11] = biological target: VEGF (soluble stimulus added to cell cultures); test: cell-based or functional assay; remark: listed apart in the source
[12] = biological target: Human VEGF (dendritic cell assay) (human, UniProt P15692-4 27-191, limits assumed); test: cell-based or functional assay
[13] = biological target: T1, GST-hVEGF121; test: ELISA, coated GST-hVEGF
Method: as §4

[14] = biological target: T1, GST-hVEGF121; test: ELISA, coated GST-hVEGF121, detection with anti-c-myc 9E10
Method: as §4, §7

[15] = biological target: T1, GST-hVEGF121; test: competition ELISA, coated GST-hVEGF, competitor Fc-VEGFR2
Method: as §6
The biological effect of VEGF is a consequence of its binding to two fundamental receptors (VEGFR1 and VEGFR2), so for a polypeptide that binds to VEGF to be effective in the therapeutic setting, it must block these interactions (Shibuya, Cell Structure and Function, 2001: 26: 25-35). The ability of Nb-V1 to compete with receptors 1 and 2 for binding to its ligand (VEGF) was assessed by solid phase ligand competition ELISA, as described above.

[16] = biological target: T5, CHO-VEGF (hVEGF121 produced in the CHO cell line) (human, UniProt P15692-9 27-147); test: competition ELISA, coated CHO hVEGF121, competitor biotinylated CIGB166a
T5 construct: any tag is not described
T5 sequence (looked up): T1 sequence (looked up)
Method: (§8) Their displacement from their binding to VEGF could be an indication of the potentiality of the new polypeptides to mediate the desired effects in vivo. The ability of anti-VEGF VHH to compete with Bevacizumab antibody and CIGB166a antibody fragment for binding to its ligand was assessed by a variation of the solid phase ligand competition ELISA as described. 96-well plates (NUNC, Germany) were coated with 1 μg/mL hVEGF121, produced in the CHO cell line. Serial dilutions of purified VHHs were added, from 15,000 nM to 1,200 nM.
(§9) Biotinylated Bevacizumab or biotinylated-CIGB166a were then added, diluted in blocking solution to a final concentration of 2.3 ng/mL and 14.3 ng/ml, respectively. To detect the binding of biotinylated antibodies, streptavidin conjugated to HRP was added. The wells incubated with Biotinylated Bevacizumab or biotinylated-CIGB166a, without the addition of the antibody fragments, were taken as reference of maximum binding in the absence of competitor. In this assay, the Fc-VEGFR2 receptor chimera was used as a positive control. The percentage of inhibition of the binding of Bevacizumab, CIGB166a or VEGFR2 to its ligand was calculated as described above in the Example 1.

[17] = biological target: T5, CHO-VEGF (hVEGF121 produced in the CHO …); test: competition ELISA, coated CHO hVEGF121, competitor biotinylated Bevacizumab
Method: as §8, §9

[18] = biological target: T2, Recombinant human bFGF; test: ELISA, coated bFGF
Method: as §1, with “The plates were incubated for 1 hour at 37° C. and after several washes, the monoclonal antibody 9E10, specific for c-myc, was added. After” for “After”
SEQ ID NO: 18 and SEQ ID NO: 19, and the bivalent Nb-VV6 and Nb-FF2, with sequences identified as SEQ ID NO: 20 and SEQ ID NO: 21, were expressed and purified as described in the Example 1. In all cases, the purity and identity of the proteins were verified by SDS-PAGE 12% and anti-polyhistidine Western Blot. […] The experimental mass of the polypeptides and the arrangement of the disulfide bridges were checked by ESI/MS-MS. […] The biological activity of the polypeptides was evaluated by ELISA for recognition of the VEGF and bFGF antigens, and by their ability to displace VEGF and bFGF binding to their respective VEGFR2 and FGFR1 receptors. […] In agreement with the increase in recognition, a decrease in the KD of the fragments was observed, calculated according to the methodology described by Beatty et al (Beatty J D, Beatty B G, Vlahos W G. J Immunol Methods. 1987 Jun. 26;100(1-2):173-9).

T2 sequence (P09038 143-288 limits assumed): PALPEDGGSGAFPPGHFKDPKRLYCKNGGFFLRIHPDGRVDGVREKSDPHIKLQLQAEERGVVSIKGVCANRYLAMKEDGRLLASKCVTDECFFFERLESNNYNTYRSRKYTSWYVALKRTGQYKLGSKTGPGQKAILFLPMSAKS
Sequence of VEGF (soluble stimulus added to cell cultures) (P15692 whole entry): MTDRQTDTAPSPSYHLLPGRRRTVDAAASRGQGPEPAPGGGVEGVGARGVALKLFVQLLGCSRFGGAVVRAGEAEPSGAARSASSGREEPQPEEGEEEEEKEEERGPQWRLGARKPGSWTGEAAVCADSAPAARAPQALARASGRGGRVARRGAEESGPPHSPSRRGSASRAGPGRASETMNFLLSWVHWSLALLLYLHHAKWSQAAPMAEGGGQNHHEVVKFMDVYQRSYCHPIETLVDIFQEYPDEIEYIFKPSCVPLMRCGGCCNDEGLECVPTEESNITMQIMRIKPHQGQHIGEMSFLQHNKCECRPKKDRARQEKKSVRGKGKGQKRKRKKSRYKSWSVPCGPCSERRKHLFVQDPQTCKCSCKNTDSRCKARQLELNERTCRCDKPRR
T3 sequence (P15655 10-154 limits assumed): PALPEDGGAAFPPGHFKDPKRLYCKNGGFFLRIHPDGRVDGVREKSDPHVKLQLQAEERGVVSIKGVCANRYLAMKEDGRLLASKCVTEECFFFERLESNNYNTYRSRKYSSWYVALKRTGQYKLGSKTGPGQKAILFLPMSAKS

binding result [1]: no binding | fold increase in recognition against Nb-A5 [2]: 5 fold | EC50 [3]: 11.5 nM | IC50, proliferation of HDMEC cells +VEGF (5 ng/ml) [4]: > 6000 nM | IC50, proliferation of HDMEC cells +bFGF (10 ng/ml) [5]: 121 nM | EC50 [6]: 11.3 nM | IC50 [7]: 134 nM
B1: Nb-F3 (VHH)
VHH: QVQLVESGGGLVQPGGSLRLSCAASGTEDGRLLTLGGSWFRQAPGQGLEAVAAIGAGDRGGATYYADSVKGRFTISRDNSKNTLYLQMNSLRAEDTAVYYCTALYERQPQLAATKVARKWGQGTLVTVSS
notes: carries the C-terminal c-myc tracer peptide and histidine tag; also called VHH Nb-F3

binding result [8]: no binding | fold lower EC50 than Nb-E7 [9]: 3 fold | EC50 [10]: 4.08 nM | IC50, proliferation of HDMEC cells +VEGF (5 ng/ml) [4]: 116 nM | IC50, proliferation of HDMEC cells +bFGF (10 ng/ml) [5]: > 6000 nM | PD1 expression (%) in CD8+ cells treated with VEGF, VHH 1 µg/mL [11]: 64% | PD1 expression (%) in CD8+ cells treated with VEGF, VHH 5 µg/mL [11]: 58% | PD1 expression (%) in CD8+ cells treated with VEGF, VHH 10 µg/mL [11]: 38% | CD86 (MFI) on dendritic cells +VEGF +LPS, VHH 1 µg/mL [12]: 1560 MFI | CD86 (MFI) on dendritic cells +VEGF +LPS, VHH 5 µg/mL [12]: 3000 MFI | CD86 (MFI) on dendritic cells +VEGF +LPS, VHH 10 µg/mL [12]: 17200 MFI | MHCII (MFI) on dendritic cells +VEGF +LPS, VHH 1 µg/mL [12]: 4700 MFI | MHCII (MFI) on dendritic cells +VEGF +LPS, VHH 5 µg/mL [12]: 5200 MFI | MHCII (MFI) on dendritic cells +VEGF +LPS, VHH 10 µg/mL [12]: 17000 MFI | EC50 [13]: 4.45 nM | EC50 [14]: 4.73 nM | IC50 [15]: 28.6 nM | IC50 [16]: 67.5 nM | IC50 [17]: 931 nM
B2: Nb-V1 (VHH)
VHH: QVQLVESGGGLVQPGGSLRLSCAASGNSAEDRLYNSYTWFRQAPGQGLEAVAAISSHFSAGLTYYADSVKGRFTISRDNSKNTLYLQMNSLRAEDTAVYYCEITSHASHNDAWSTPRTVWGQGTLVTVSS
notes: carries the C-terminal c-myc tracer peptide and histidine tag; also called VHH Nb-V1

fold decrease of EC50 against Nb-F3 [18]: 2 fold | IC50, proliferation of HDMEC cells +VEGF (5 ng/ml) [4]: > 6000 nM | IC50, proliferation of HDMEC cells +bFGF (10 ng/ml) [5]: 50 nM | EC50 [6]: 5.86 nM | IC50 [7]: 53.5 nM
B3: Nb-FF2 (VHH)
chain: QVQLVESGGGLVQPGGSLRLSCAASGTEDGRLLTLGGSWFRQAPGQGLEAVAAIGAGDRGGATYYADSVKGRFTISRDNSKNTLYLQMNSLRAEDTAVYYCTALYERQPQLAATKVARKWGQGTLVTVSSAHHSEDPSSKAPKAPAQVQLVESGGGLVQPGGSLRLSCAASGTEDGRLLTLGGSWFRQAPGQGLEAVAAIGAGDRGGATYYADSVKGRFTISRDNSKNTLYLQMNSLRAEDTAVYYCTALYERQPQLAATKVARKWGQGTLVTVSSAAAGSEQKLISEEDLNSHHHHHH
notes: Bivalent monospecific tandem VHH for bFGF; with c-myc and histidine tag
